For the test, the target named is T1, 人PCSK9抗原多肽 (前蛋白转化酶枯草溶菌素9, PCSK9) (human, UniProt Q8NBP7 31-692, limits assumed).
T1 construct: Expressed in CHO cells; also called PCSK9蛋白; Proprotein convertase subtilisin/kexin type 9
The test can be described thus: ProteOn (SPR), PCSK9 immobilised on chip, nanobody dilution series as analyte.

T1 sequence (Q8NBP7 31-692 limits assumed): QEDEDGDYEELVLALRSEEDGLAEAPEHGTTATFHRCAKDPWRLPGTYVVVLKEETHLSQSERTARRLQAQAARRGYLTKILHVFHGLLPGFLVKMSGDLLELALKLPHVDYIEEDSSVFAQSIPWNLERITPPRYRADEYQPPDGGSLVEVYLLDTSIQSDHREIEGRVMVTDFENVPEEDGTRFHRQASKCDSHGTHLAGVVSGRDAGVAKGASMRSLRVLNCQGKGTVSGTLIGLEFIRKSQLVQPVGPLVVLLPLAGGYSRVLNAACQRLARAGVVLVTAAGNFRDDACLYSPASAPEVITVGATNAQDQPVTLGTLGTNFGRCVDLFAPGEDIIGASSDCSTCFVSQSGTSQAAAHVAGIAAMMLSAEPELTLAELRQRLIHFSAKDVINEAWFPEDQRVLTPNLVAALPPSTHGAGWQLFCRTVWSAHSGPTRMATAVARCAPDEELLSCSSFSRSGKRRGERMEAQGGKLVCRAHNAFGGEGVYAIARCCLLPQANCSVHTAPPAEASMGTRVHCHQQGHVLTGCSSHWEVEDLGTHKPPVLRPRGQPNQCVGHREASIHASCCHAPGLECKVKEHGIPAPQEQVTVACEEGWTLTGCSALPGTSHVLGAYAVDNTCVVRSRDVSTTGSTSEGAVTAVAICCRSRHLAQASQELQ

B1: PCSK9纳米抗体 (VHH)
VHH: ESGGGSVQAGGSLRLSCTVSGYTYSSNCMGWFRQAPGKEHEGVASIYIGGGSTYYADSVKGRFTISQDNAKNTVYLQMNSLKPEDTAMYYCAVGCQGLVDFGYWDQGTQVTVSS
notes: Expressed from pMECS in E. coli HB2151 and purified on a Ni column; also called PCSK9 Nb; PCSK9 nanobody; not shown: tags from the pMECS vector (HA tag detected with anti-HA antibody); purified on a
For the molecule B1, the affinity, expressed as Kd, was 0.025 µM; the koff stood at 0.000112 s⁻¹; the kon was 4490 M⁻¹ s⁻¹.

The values above are taken from patent CN109897110A (SHENZHEN BGI LIFE SCIENCE RES INSTITUTE, dated 2019).
